# Earlier results as cited in PMC3667765.
# Biological target: E-cadherin (Homo sapiens) (UniProt P12830)
# Chain of UniProt P12830 (P12830 155-709): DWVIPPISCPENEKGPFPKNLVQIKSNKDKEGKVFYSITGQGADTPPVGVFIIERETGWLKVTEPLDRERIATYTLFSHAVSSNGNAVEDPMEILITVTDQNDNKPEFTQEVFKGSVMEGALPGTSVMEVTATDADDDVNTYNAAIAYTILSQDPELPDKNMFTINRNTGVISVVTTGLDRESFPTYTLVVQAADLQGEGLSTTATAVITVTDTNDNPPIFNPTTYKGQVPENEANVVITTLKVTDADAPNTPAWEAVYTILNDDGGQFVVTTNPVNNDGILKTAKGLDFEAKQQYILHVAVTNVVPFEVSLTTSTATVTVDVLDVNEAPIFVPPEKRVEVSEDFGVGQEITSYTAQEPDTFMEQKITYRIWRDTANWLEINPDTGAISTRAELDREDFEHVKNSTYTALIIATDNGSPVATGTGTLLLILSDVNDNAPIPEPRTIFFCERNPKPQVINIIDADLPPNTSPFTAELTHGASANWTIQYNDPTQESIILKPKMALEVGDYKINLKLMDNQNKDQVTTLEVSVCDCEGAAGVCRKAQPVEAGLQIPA
substance,measurement,value
Internalin A (from UniProt P0DJM0),Kd,8 µM
